In patent publication US20170349669A1 (Hoffmann-La Roche, published 2017):

T1: human IL17 (human, UniProt Q16552 24-155)
T1 construct: Used as analyte in solution; also called IL17-A
T1 sequence (looked up): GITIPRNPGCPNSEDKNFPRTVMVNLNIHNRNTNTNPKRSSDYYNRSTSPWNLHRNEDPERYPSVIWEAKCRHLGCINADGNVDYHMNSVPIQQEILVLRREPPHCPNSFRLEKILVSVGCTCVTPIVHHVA

T2: TWEAK (human, UniProt O43508 94-249, limits assumed)
T2 construct: The assay paragraph says only 'TWEAK'; also called human TWEAK; TNF-related weak inducer of apoptosis
T2 sequence (looked up): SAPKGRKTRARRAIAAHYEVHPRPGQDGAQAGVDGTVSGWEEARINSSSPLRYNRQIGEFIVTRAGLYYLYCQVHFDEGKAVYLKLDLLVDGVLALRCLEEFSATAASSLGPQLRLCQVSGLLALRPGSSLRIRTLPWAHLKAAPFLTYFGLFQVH


Assays:
[1] = molecular target: T1, human IL17; assay: SPR Biacore T200 25 C, antibody captured via anti-human F(ab')2, human IL17 as analyte, 1:1 Langmuir
Protocol: Around 6000 resonance units (RU) of the capturing system (15 μg/ml goat anti human F(ab′)2; Order Code: 28958325; GE Healthcare Bio-Sciences AB, Schweden) were coupled on a CM5 chip at pH 5.0 by using an amine coupling kit supplied by the GE Healthcare. The sample and system buffer was PBS-T (10 mM phosphate buffered saline including 0.05% Tween 20) pH 7.4. The bispecific antibody was captured by injecting a 50 nM solution for 90 sec at a flow of 10 μl/min. Association was measured by injection human IL17 in various concentrations in solution for 3 min at a flow of 30 μl/min starting with 50 nM in 1:1 serial dilutions. The dissociation phase was monitored for up to 10 min and triggered by switching from the sample solution to running buffer. The surface was regenerated twice by 60 sec wash with a 10 mM glycine pH 2.1 solution at a flow rate of 30 μl/min. Bulk refractive index differences were corrected by subtracting the response obtained from a goat anti human F(ab′)2 surface. Blank injections are also subtracted (=double referencing). For calculation of apparent KD and other kinetic parameters, the Langmuir 1:1 model was used.

[2] = molecular target: T2, TWEAK; assay: SPR Biacore T200 25 C, apparent KD, TWEAK amine-coupled on C1 chip, antibody as analyte

| Kd [1] | Kd [2] | Binder |
| --- | --- | --- |
| 0.1 nM | < 0.1 nM | TweakIL17_101 (bispecific antibody, human IgG4 S228P, kappa, also called TweakIL17_101 (wt); TweakIL17_0101) heavy 1: DIQMTQSPSSVSASVGDRVTITCQASQNIYSNLAWYQQKPGKAPKLLIYTASYLASGVPSRFSGSGSGTDYTLTISSLQPEDFATYYCQTAYYNSRPDTVAFGGGTKVEIKRTVAAPSVFIFPPSDEQLKSGTASVVCLLNNFYPREAKVQWKVDNALQSGNSQESVTEQDSKDSTYSLSSTLTLSKADYEKHKVYACEVTHQGLSSPVTKSFNRGECPPCPPCPAPEFEGGPSVFLFPPKPKDTLMISRTPEVTCVVVDVSQEDPEVQFNWYVDGVEVHNAKTKPREEQFNSTYRVVSVLTVLHQDWLNGKEYKCKVSNKGLPSSIEKTISKAKGQPREPQVYTLPPCQEEMTKNQVSLWCLVKGFYPSDIAVEWESNGQPENNYKTTPPVLDSDGSFFLYSRLTVDKSRWQEGNVFSCSVMHEALHNHYTQKSLSLSL light 1: QVQLVQSGAEVKKPGSSVKVSCKASGFDFSTYYMSWVRQAPGQGLEWMGTVYVRQGTTYYASWLNGRVTITADESTSTAYMELSSLRSEDTAVYYCARGGYNYDDAFVIWGQGTLVTVSSASTKGPSVFPLAPCSRSTSESTAALGCLVKDYFPEPVTVSWNSGALTSGVHTFPAVLQSSGLYSLSSVVTVPSSSLGTKTYTCNVDHKPSNTKVDKRVESKYG heavy 2: EVQLVESGGGLVQPGGSLRLSCAASGFSLDSYGVHWVRQATGKGLEWVSVIWSDGTTTYNSALKSRFTISRENAKNSLYLQMNSLRAGDTAVYYCARDTHYRLYYYAMDYWGQGTTVTVSSASTKGPSVFPLAPCSRSTSESTAALGCLVKDYFPEPVTVSWNSGALTSGVHTFPAVLQSSGLYSLSSVVTVPSSSLGTKTYTCNVDHKPSNTKVDKRVESKYGPPCPPCPAPEFEGGPSVFLFPPKPKDTLMISRTPEVTCVVVDVSQEDPEVQFNWYVDGVEVHNAKTKPREEQFNSTYRVVSVLTVLHQDWLNGKEYKCKVSNKGLPSSIEKTISKAKGQPREPQVCTLPPSQEEMTKNQVSLSCAVKGFYPSDIAVEWESNGQPENNYKTTPPVLDSDGSFFLVSRLTVDKSRWQEGNVFSCSVMHEALHNHYTQKSLSLSL light 2: DIVMTQSPLSLPVTPGEPASISCRSSQSLVHSNGDTYFHWYLQKPGQSPQLLIYKVSNRFSGVPDRFSGSGSGTDFTLKISRVEAEDVGVYYCSQTTHAPFTFGQGTKLEIKRTVAAPSVFIFPPSDEQLKSGTASVVCLLNNFYPREAKVQWKVDNALQSGNSQESVTEQDSKDSTYSLSSTLTLSKADYEKHKVYACEVTHQGLSSPVTKSFNRGEC |
| 0.1 nM | < 0.1 nM | TweakIL17_0128 (bispecific antibody, human IgG4 S228P, kappa, also called TweakIL17_128) heavy 1: DIQMTQSPSSVSASVGDRVTITCQASQNIYSNLAWYQEKPGKAPKLLIYTASYLASGVPSRFSGSGSGTDYTLTISSLQPEDFATYYCQTAYYNSRPDTVAFGGGTKVEIKRTVAAPSVFIFPPSDEELKSGTASVVCLLNNFYPREAKVQWKVDNALQSGNSQESVTEQDSKDSTYSLSSTLTLSKADYEKHKVYACEVTHQGLSSPVTKSFNRGECPPCPPCPAPEFEGGPSVFLFPPKPKDTLMISRTPEVTCVVVDVSQEDPEVQFNWYVDGVEVHNAKTKPREEQFNSTYRVVSVLTVLHQDWLNGKEYKCKVSNKGLPSSIEKTISKAKGQPREPQVYTLPPCQEEMTKNQVSLWCLVKGFYPSDIAVEWESNGQPENNYKTTPPVLDSDGSFFLYSRLTVDKSRWQEGNVFSCSVMHEALHNHYTQKSLSLSL light 1: QVQLVQSGAEVKKPGSSVKVSCKASGFDFSTYYMSWVRKAPGQGLEWMGTVYVRQGTTYYASWLNGRVTITADESTSTAYMELSSLRSEDTAVYYCARGGYNYDDAFVIWGQGTLVTVSSASTKGPSVFPLAPCSRSTSESTAALGCLVKDYFPEPVTVSWNSGALTSGVHTFPAVLQSSGLYSLSSVVTVPSSSLGTKTYTCNVDHKPSNTKVDKRVESKYG heavy 2: EVQLVESGGGLVQPGGSLRLSCAASGFSLDSYGVHWVREATGKGLEWVSVIWSDGTTTYNSALKSRFTISRENAKNSLYLQMNSLRAGDTAVYYCARDTHYRLYYYAMDYWGQGTTVTVSSASTKGPSVFPLAPCSRSTSESTAALGCLVEDYFPEPVTVSWNSGALTSGVHTFPAVLQSSGLYSLSSVVTVPSSSLGTKTYTCNVDHKPSNTKVDERVESKYGPPCPPCPAPEFEGGPSVFLFPPKPKDTLMISRTPEVTCVVVDVSQEDPEVQFNWYVDGVEVHNAKTKPREEQFNSTYRVVSVLTVLHQDWLNGKEYKCKVSNKGLPSSIEKTISKAKGQPREPQVCTLPPSQEEMTKNQVSLSCAVKGFYPSDIAVEWESNGQPENNYKTTPPVLDSDGSFFLVSRLTVDKSRWQEGNVFSCSVMHEALHNHYTQKSLSLSL light 2: DIVMTQSPLSLPVTPGEPASISCRSSQSLVHSNGDTYFHWYLKKPGQSPQLLIYKVSNRFSGVPDRFSGSGSGTDFTLKISRVEAEDVGVYYCSQTTHAPFTFGQGTKLEIKRTVAAPSVFIFPPSDKKLKSGTASVVCLLNNFYPREAKVQWKVDNALQSGNSQESVTEQDSKDSTYSLSSTLTLSKADYEKHKVYACEVTHQGLSSPVTKSFNRGEC |
| 0.1 nM | < 0.1 nM | TweakIL17_103 (bispecific antibody, human IgG4 S228P, kappa, also called TweakIL17_0103) heavy 1: DIQMTQSPSSVSASVGDRVTITCQASQNIYSNLAWYQQKPGKAPKLLIYTASYLASGVPSRFSGSGSGTDYTLTISSLQPEDFATYYCQTAYYNSRPDTVAFGGGTKVEIKRTVAAPSVFIFPPSDEELKSGTASVVCLLNNFYPREAKVQWKVDNALQSGNSQESVTEQDSKDSTYSLSSTLTLSKADYEKHKVYACEVTHQGLSSPVTKSFNRGECPPCPPCPAPEFEGGPSVFLFPPKPKDTLMISRTPEVTCVVVDVSQEDPEVQFNWYVDGVEVHNAKTKPREEQFNSTYRVVSVLTVLHQDWLNGKEYKCKVSNKGLPSSIEKTISKAKGQPREPQVYTLPPCQEEMTKNQVSLWCLVKGFYPSDIAVEWESNGQPENNYKTTPPVLDSDGSFFLYSRLTVDKSRWQEGNVFSCSVMHEALHNHYTQKSLSLSL light 1: QVQLVQSGAEVKKPGSSVKVSCKASGFDFSTYYMSWVRQAPGQGLEWMGTVYVRQGTTYYASWLNGRVTITADESTSTAYMELSSLRSEDTAVYYCARGGYNYDDAFVIWGQGTLVTVSSASTKGPSVFPLAPCSRSTSESTAALGCLVKDYFPEPVTVSWNSGALTSGVHTFPAVLQSSGLYSLSSVVTVPSSSLGTKTYTCNVDHKPSNTKVDKRVESKYG heavy 2: EVQLVESGGGLVQPGGSLRLSCAASGFSLDSYGVHWVRQATGKGLEWVSVIWSDGTTTYNSALKSRFTISRENAKNSLYLQMNSLRAGDTAVYYCARDTHYRLYYYAMDYWGQGTTVTVSSASTKGPSVFPLAPCSRSTSESTAALGCLVEDYFPEPVTVSWNSGALTSGVHTFPAVLQSSGLYSLSSVVTVPSSSLGTKTYTCNVDHKPSNTKVDERVESKYGPPCPPCPAPEFEGGPSVFLFPPKPKDTLMISRTPEVTCVVVDVSQEDPEVQFNWYVDGVEVHNAKTKPREEQFNSTYRVVSVLTVLHQDWLNGKEYKCKVSNKGLPSSIEKTISKAKGQPREPQVCTLPPSQEEMTKNQVSLSCAVKGFYPSDIAVEWESNGQPENNYKTTPPVLDSDGSFFLVSRLTVDKSRWQEGNVFSCSVMHEALHNHYTQKSLSLSL light 2: DIVMTQSPLSLPVTPGEPASISCRSSQSLVHSNGDTYFHWYLQKPGQSPQLLIYKVSNRFSGVPDRFSGSGSGTDFTLKISRVEAEDVGVYYCSQTTHAPFTFGQGTKLEIKRTVAAPSVFIFPPSDKKLKSGTASVVCLLNNFYPREAKVQWKVDNALQSGNSQESVTEQDSKDSTYSLSSTLTLSKADYEKHKVYACEVTHQGLSSPVTKSFNRGEC |
